Our source for the IC50 values is PMC12876990, “Targeting secreted PLA2 interactions with EGFR and vimentin to arrest prostate tumour growth” (Cell Death & Disease, 2025).

Square brackets hold non-standard residues; d marks the D form. 2Nal = N[C@@H](Cc1ccc2ccccc2c1)C(=O)O

The term IC50 denotes the concentration at which inhibition is half-maximal. A lower IC50 goes with greater potency in that assay.

This assay addresses T1, vimentin coil 2 (purified fragment).
T1 construct: vimentin, coil 2 fragment, purified; PDB 3TRT was used only for docking; also called second coil of vimentin; source: purified
The assay is described as follows: ELISA; competition enzyme immunoassay: vimentin coil 2 coated on the plate (15 µg/mL); hGIIA 100 ng/mL in PBS with 0.1% BSA mixed with c2 0.1-100 µM in DMSO, 37 °C, 2 h; detected with 4A1-alkaline phosphatase. To be noted: both partners purified.

B1: c2 (cyclo-((2-Nal)-Leu-Ser-(2-Nal)-Arg)) (peptide)
chain: cyclo([2Nal]LS[2Nal]R)
SMILES: CC(C)C[C@@H]1NC(=O)[C@H](Cc2ccc3ccccc3c2)NC(=O)[C@H](CCCNC(=N)N)NC(=O)[C@H](Cc2ccc3ccccc3c2)NC(=O)[C@H](CO)NC1=O
B1 returned an IC50 of 56.5 µM.
